Consider 30 molecules from patent US20250346644A1 (LATTICON SUZHOU BIOPHARMACEUTICALS, published 2025).

Numbering of substitutions follows the chain as printed. Names may count otherwise.

As usually defined, the Kd is the concentration at which binding is half-saturated. One may read the koff as the first-order rate constant of dissociation. High values mean a short-lived complex, low ones a long-lived complex. As a reminder, the kon is the rate constant with which the complex forms.

To fix the notation:
B1: IC-Cy08-DE (other)
heavy: APTSSSTKKTQLQLEHLLLDLQMILNGINNYKNPKLTRMLTFKFYMPKKATELKHLQCLEEELGCLEEVLNLAQSKNFHLRPRDLISNIRVIVLELKGSETTFMCEYADETATIVEFLNRWITFCQSIISTLTGGGGSGGGGSGGGGSGGGGSQVQLVQSGAEVKKPGATVKISCKVSGDTITAYYMHWVRQAPGQGLEWIGRIDPEDDSTKYAENFKGRVTITADTSTDTAYMELSSLRSEDTAVYYCTTVTCYYSRELRWFAYWGQGTLVTVSS
VL: EIVLTQSPATLSLSPGERATLSCQASQDIGNYLSWYQQKPGQAPRLLIYSATSLASGIPARFSGSRSGTDFTLTISSLEPEDFAVYYCLQHYSTPYTFGQGTKLEIK
notes: IC-Cy08 with light chain D1E; also called H6K3(H)-Cy-08-DE
B2: IC-Cy08-QD (other)
heavy: B1 heavy
VL: B1 VL with E1D, Q27D
notes: IC-Cy08 with light chain Q27D; also called H6K3(H)-Cy-08-QD
B3: IC-Cy08-QE (other)
heavy: B1 heavy
VL: B1 VL with E1D, Q27E
notes: IC-Cy08 with light chain Q27E; also called H6K3(H)-Cy-08-QE
B4: K4G3 (antibody, V domains shown)
VH: QVQLVQSGAEVKKPGATVKISCKVSGDTITAYYMHWVRQAPGQGLEWIGRIDPDDDSTKYAENFKGRVTITADTSTDTAYMELSSLRSEDTAVYYCTTVTFYYSRELRWFAYWGQGTLVTVSS
VL: B1 VL with E1D, D28Y
B5: K4G5 (antibody, V domains shown)
VH: B4 VH with D54E, S104T
VL: B1 VL with E1D, D28Y
B6: K3G9 (antibody, V domains shown)
VH: B4 VH with D54E, V99I, Y102L, S104T
VL: B1 VL with E1D, D28Y, S50Q
B7: K4G2 (antibody, V domains shown)
VH: B4 VH with D54E, V99I
VL: B1 VL with E1D, D28Y
B8: K4G6 (antibody, V domains shown)
VH: B4 VH with V99I
VL: B1 VL with E1D, D28Y
B9: K4G10 (antibody, V domains shown)
VH: B4 VH with V99I, S104T
VL: B1 VL with E1D, D28Y
B10: K4G12 (antibody, V domains shown)
VH: B4 VH with V99I, Y102L, S104T
VL: B1 VL with E1D, D28Y
B11: K3G10 (antibody, V domains shown)
VH: B4 VH with V99I, S104T
VL: B1 VL with E1D, D28Y, S50Q
B12: K3G7 (antibody, V domains shown)
VH: B4 VH with D54E, V99I, S104T
VL: B1 VL with E1D, D28Y, S50Q
B13: K4G8 (antibody, V domains shown)
VH: B4 VH with D54E, V99I, Y102L
VL: B1 VL with E1D, D28Y
B14: K4G7 (antibody, V domains shown)
VH: B4 VH with D54E, V99I, S104T
VL: B1 VL with E1D, D28Y
B15: K4G1 (antibody, V domains shown)
VH: B4 VH with D54E
VL: B1 VL with E1D, D28Y
B16: K4G4 (antibody, V domains shown)
VH: B4 VH with D54E, Y102L
VL: B1 VL with E1D, D28Y
B17: K3G6 (antibody, V domains shown)
VH: B4 VH with V99I
VL: B1 VL with E1D, D28Y, S50Q
B18: K3G8 (antibody, V domains shown)
VH: B4 VH with D54E, V99I, Y102L
VL: B1 VL with E1D, D28Y, S50Q
B19: hS4B6-H6K3-hu09 (antibody, V domains shown)
VH: B4 VH with M34L, D54E, G66N, D77N
VL: B1 VL with E1D, F71Y
notes: H6K3 with light chain D56S
B20: hS4B6-H6K3-hu08 (antibody, V domains shown)
VH: B4 VH with M34L, D54E, G66N
VL: B1 VL with E1D, S56D, F71Y
notes: H6K3 with heavy chain N76D; also called H6K3-huis
B21: hS4B6-H6K3-hu07 (antibody, V domains shown)
VH: B4 VH with M34L, D54E, D77N
VL: B1 VL with E1D, S56D, F71Y
notes: H6K3 with heavy chain N65G
B22: hS4B6-H6K3-hu05 (antibody, V domains shown)
VH: B4 VH with M34L, I48M, D54E, G66N, D77N
VL: B1 VL with E1D, S56D, F71Y
notes: H6K3 with heavy chain I48M
B23: hS4B6-H6K3-hu04 (antibody, V domains shown)
VH: B4 VH with D54E, G66N, D77N
VL: B1 VL with E1D, S56D, F71Y
notes: H6K3 with heavy chain L34M
B24: hS4B6-H6K3-hu10 (antibody, V domains shown)
VH: B4 VH with M34L, D54E, G66N, D77N
VL: B1 VL with E1D, S56T, F71Y
notes: H6K3 with light chain D56T
B25: hS4B6-H6K3-hu01 (antibody, V domains shown)
VH: B4 VH with D27Y, M34L, D54E, G66N, D77N
VL: B1 VL with E1D, S56D, F71Y
notes: H6K3 with heavy chain D27Y
B26: hS4B6-H6K3-hu02 (antibody, V domains shown)
VH: B4 VH with I29F, M34L, D54E, G66N, D77N
VL: B1 VL with E1D, S56D, F71Y
notes: H6K3 with heavy chain I29F
B27: hS4B6-H6K3-hu03 (antibody, V domains shown)
VH: B4 VH with A31D, M34L, D54E, G66N, D77N
VL: B1 VL with E1D, S56D, F71Y
notes: H6K3 with heavy chain A31D
B28: hS4B6-H6K3-hu11 (antibody, V domains shown)
VH: B4 VH with M34L, D54E, G66N, D77N
VL: B1 VL with E1D, S56D, R66G, F71Y
notes: H6K3 with light chain R66G
B29: hS4B6-H6K3-hu06 (antibody, V domains shown)
VH: B4 VH with M34L, D54E, G66S, D77N
VL: B1 VL with E1D, S56D, F71Y
notes: H6K3 with heavy chain N65S
B30: hS4B6-H6K3-hu12 (antibody, V domains shown)
VH: B4 VH with M34L, D54E, G66N, D77N
VL: B1 VL with E1D, S56D
notes: H6K3 with light chain Y71F

The first test addresses T1, hIL2Rβ (hCD122) (human, UniProt P14784 27-239, limits assumed).
T1 construct: bought recombinant protein; also called hCD122 (Acro)
T1 sequence (looked up): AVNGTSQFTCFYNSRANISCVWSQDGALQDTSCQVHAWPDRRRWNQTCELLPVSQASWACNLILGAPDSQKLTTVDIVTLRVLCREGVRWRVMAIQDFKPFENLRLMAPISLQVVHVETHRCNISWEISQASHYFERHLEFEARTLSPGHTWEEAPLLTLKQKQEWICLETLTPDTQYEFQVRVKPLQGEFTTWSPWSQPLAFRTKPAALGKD
The test is described as follows: ELISA (method of section 2.1.1): sample captured on coated goat anti-human IgG, hCD122 titrated; the x axis is the CD122 concentration. (In an ELISA, binding on a coated surface is turned into a signal by an enzyme label.)
Procedure: ELISA was performed as follows: a goat anti-human IgG (Jackson Immunoresearch) was diluted to 1 μg/mL in 1×PBS and added to an ELISA plate at 100 μL/well, and then incubated at 4° C. overnight. The plate was washed with PBS and then blocked at room temperature for 1 hour after adding the blocking solution (PBST containing 1% BSA) to each well. […] The plate was washed with PBST; the HRP-labeled anti-6×His-tag secondary antibody (Proteintech) diluted at a ratio of 1:10,000 in blocking solution was then added to each well and incubated at room temperature for 1 hour. The plate was washed with PBST; the TMB chromogenic solution (Thermo) was added to each well and incubated in dark for 3-10 minutes at room temperature. The stop solution (2 M HCl) was added to each well, and OD values at a wavelength of 450-570 nm were read using a multimode microplate reader (Varioskan, Thermo).
As to B1, the binding result is recorded as “binds”.
Turning to B2, the binding result was “binds”.
Turning to B3, the binding result is reported as “binds”.

The next test has as its target T2, hIL2-DM-his (human, UniProt P60568 21-153).
T2 construct: expressed in ExpiCHO-S cells, nickel-column purified; also called hIL-2 mutein containing two point mutations K64G and N90R (with a his-tag); not shown: his-tag
The test is described as follows: BLI ForteBio, Ab on Protein A sensor.
Target sequence in this assay (P60568 21-153 K84G/N110R): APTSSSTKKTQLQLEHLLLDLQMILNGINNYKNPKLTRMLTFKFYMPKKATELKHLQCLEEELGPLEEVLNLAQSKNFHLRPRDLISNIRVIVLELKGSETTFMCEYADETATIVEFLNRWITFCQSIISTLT
B4 came in with a Kd of 3.08 nM, a koff of 0.00108 s⁻¹ and a kon of 351000 M⁻¹ s⁻¹.
For B5 the same measures were 2.7 nM, 0.00113 s⁻¹ and 418000 M⁻¹ s⁻¹.
B6 showed a Kd of 1.49 nM, an off-rate constant (koff) of 0.000529 s⁻¹ and a kon of 356000 M⁻¹ s⁻¹.
B7 registered an equilibrium dissociation constant (Kd) of 3.72 nM, a koff of 0.00143 s⁻¹ and a kon of 384000 M⁻¹ s⁻¹.
B8 had a Kd of 2.33 nM, a dissociation rate constant (koff) of 0.000994 s⁻¹ and a kon of 426000 M⁻¹ s⁻¹.
B9 returned a Kd of 2.47 nM, a koff of 0.000907 s⁻¹ and an on-rate constant (kon) of 367000 M⁻¹ s⁻¹.
In turn, B10 gave a Kd of 0.686 nM, a koff of 0.000326 s⁻¹ and a kon of 476000 M⁻¹ s⁻¹.
As to B11, binding was characterised by a dissociation constant (Kd) of 1.46 nM, the koff stood at 0.000585 s⁻¹ and the kon was determined as 402000 M⁻¹ s⁻¹.
For B12 the same measures were 1.96 nM, 0.000656 s⁻¹ and 336000 M⁻¹ s⁻¹.
Turning to B13, the Kd was 2.49 nM, the koff is 0.000856 s⁻¹ and the kon is 344000 M⁻¹ s⁻¹.
In the case of B14, the Kd is 3.2 nM, the koff came to 0.00127 s⁻¹ and the kon was 396000 M⁻¹ s⁻¹.
In the case of B15, binding was characterised by a dissociation constant (Kd) of 4.28 nM, the koff was 0.00151 s⁻¹ and the kon turned out to be 352000 M⁻¹ s⁻¹.
B16 had a Kd of 2.25 nM, a koff of 0.00082 s⁻¹ and a kon of 364000 M⁻¹ s⁻¹.
In turn, B17 returned a Kd of 2.13 nM, a koff of 0.000844 s⁻¹ and a kon of 397000 M⁻¹ s⁻¹.
For B18, the Kd stood at 1.5 nM, the off-rate constant (koff) was 0.000446 s⁻¹ and the kon is 297000 M⁻¹ s⁻¹.

The target in another test is T2, hIL2-DM-his. The test is described as follows: BLI ForteBio, Ab on Protein A sensor. The source holds these as a separate data set.
Procedure: After each cycle of association and dissociation steps, the sensor was regenerated by 10 mM glycine buffer (pH 1.5) and then stated with the next cycle of detection. After the detection, the association rate constant and dissociation rate constant between the antibody and antigen were fitted and extrapolated using the analytical software, and the value of affinity constant (KD) was calculated.
For the molecule B19, the “Binding Response (nm)” value came out at 0.18 nm; the affinity, expressed as Kd, was 23.6 nM; the koff was 0.00867 s⁻¹; the on-rate constant (kon) came out at 367000 M⁻¹ s⁻¹.
Consider B20, for which the “Binding Response (nm)” value is 0.127 nm, the Kd was 58.1 nM, the off-rate (koff) was determined as 0.0207 s⁻¹ and the association rate constant (kon) is 356000 M⁻¹ s⁻¹.
As to B21, the “Binding Response (nm)” value is 0.13 nm, the equilibrium dissociation constant (Kd) worked out at 45.3 nM, the koff is 0.0181 s⁻¹ and the kon was found to be 400000 M⁻¹ s⁻¹.
B22: the “Binding Response (nm)” value stood at 0.139 nm, the Kd worked out at 39.4 nM, the koff is 0.0152 s⁻¹ and the kon is 387000 M⁻¹ s⁻¹.
In the case of B23, the “Binding Response (nm)” value worked out at 0.143 nm, binding was characterised by a dissociation constant (Kd) of 34.6 nM, the dissociation rate constant (koff) came out at 0.0149 s⁻¹ and the kon turned out to be 430000 M⁻¹ s⁻¹.
For B24, the “Binding Response (nm)” value was 0.172 nm, the Kd is 28.3 nM, the koff turned out to be 0.0106 s⁻¹ and the kon was found to be 372000 M⁻¹ s⁻¹.
Regarding B25, the binding result is given as “no binding (tested: 100 nM (highest antigen concentration))”.
B26: the binding result is “no binding (tested: 100 nM (highest antigen concentration))”.
With B27, the binding result is recorded as “no binding (tested: 100 nM (highest antigen concentration))”.
As to B28, the binding result is listed as “no binding (tested: 100 nM (highest antigen concentration))”.
As for B29, the “Binding Response (nm)” value was 0.135 nm, the Kd was determined as 52.5 nM, the koff stood at 0.0192 s⁻¹ and the kon turned out to be 365000 M⁻¹ s⁻¹.
For the molecule B30, the “Binding Response (nm)” value came out at 0.152 nm, the Kd worked out at 32.3 nM, the koff came to 0.0174 s⁻¹ and the kon came out at 537000 M⁻¹ s⁻¹.
